Measurements reported in patent publication US20160244802.

Assays:
[1] = target: T1, histone H3 (1-18) peptide, di-methyl on lysine 9, P68431
T1 chain: ARTKQTARKSTGGKAPRK

[2] = target: T2, histone H3 (1-18) peptide, tri-methyl on lysine 9, P68431
T2 chain: ARTKQTARKSTGGKAPRK

[3] = target: T3, histone H3 (1-18) peptide, H3K4me1 (Upstate 12-563), P68431
T3 chain: ARTKQTARKSTGGKAPRK

[4] = target: T4, histone H3 (1-18) peptide, H3K4me2 (Upstate 12-460), P68431
T4 chain: ARTKQTARKSTGGKAPRK

[5] = target: T5, histone H3 (1-18) peptide, H3K4me3 (Upstate 12-564), P68431
T5 chain: ARTKQTARKSTGGKAPRK

[6] = target: T6, dimethyl-K36 histone H3 peptide (STGGV2mKKPHRY-C)
T6 chain: STGGVKKPHRYC

[7] = target: trimethyl-K36 histone H3 peptide
[8] = target: T7, dimethyl-K9 histone H3 peptide (acetyl-ARTKQTARmeKSTGGKAPRK-biotin)
T7 chain: ARTKQTARKSTGGKAPRK

[9] = target: T8, trimethyl-K9 histone H3 peptide (acetyl-ARTKQTARmeKSTGGKAPRK-biotin)
T8 chain: ARTKQTARKSTGGKAPRK

B1: recombinant Flag-JHDM3A (JMJD2A) (protein)
chain: MASESETLNPSARIMTFYPTMEEFRNFSRYIAYIESQGAHRAGLAKVVPPKEWKPRASYDDIDDLVIPAPIQQLVTGQSGLFTQYNIQKKAMTVREFRKIANSDKYCTPRYSEFEELERKYWKNLTFNPPIYGADVNGTLYEKHVDEWNIGRLRTILDLVEKESGITIEGVNTPYLYFGMWKTSFAWHTEDMDLYSINYLHFGEPKSWYSVPPEHGKRLERLAKGFFPGSAQSCEAFLRHKMTLISPLMLKKYGIPFDKVTQEAGEFMITFPYGYHAGFNHGFNCAESTNFATRRWIEYGKQAVLCSCRKDMVKISMDVFVRKFQPERYKLWKAGKDNTVIDHTLPTPEAAEFLKESELPPRAGNEEECPEEDMEGVEDGEEGDLKTSLAKHRIGTKRHRVCLEIPQEVSQSELFPKEDLSSEQYEMTECPAALAPVRPTHSSVRQVEDGLTFPDYSDSTEVKFEELKNVKLEEEDEEEEQEAAALDLSVNPASVGGRLVFSGSKKKSSSSLGSGSSRDSISSDSETSEPLSCRAQGQTGVLTVHSYAKGDGRVTVGEPCTRKKGSAARSFSERELAEVADEYMFSLEENKKSKGRRQPLSKLPRHHPLVLQECVSDDETSEQLTPEEEAEETEAWAKPLSQLWQNRPPNFEAEKEFNETMAQQAPHCAVCMIFQTYHQVEFGGFNQNCGNASDLAPQKQRTKPLIPEMCFTSTGCSTDINLSTPYLEEDGTSILVSCKKCSVRVHASCYGVPPAKASEDWMCSRCSANALEEDCCLCSLRGGALQRANDDRWVHVSCAVAILEARFVNIAERSPVDVSKIPLPRFKLKCIFCKKRRKRTAGCCVQCSHGRCPTAFHVSCAQAAGVMMQPDDWPFVVFITCFRHKIPNLERAKGALQSITAGQKVISKHKNGRFYQCEVVRLTTETFYEVNFDDGSFSDNLYPEDIVSQDCLQFGPPAEGEVVQVRWTDGQVYGAKFVASHPIQMYQVEFEDGSQLVVKRDDVYTLDEELPKRVKSRLSVASDMRFNEIFTEKEVKQEKKRQRVINSRYREDYIEPALYRAIME
[1]
  demethylation of peptide substrate, mass spectrometry: no demethylation was observed on a di-methyl H3K9 peptide
[2]
  demethylation of peptide substrate, mass spectrometry: the trimethyl-K9 peptide was converted to a dimethyl-K9 peptide

B2: recombinant Flag-RBP2 (Retinoblastoma Binding Protein 2, JARID1A) (protein)
chain: MAGVGPGGYAAEFVPPPECPVFEPSWEEFTDPLSFIGRIRPLAEKTGICKIRPPKDWQPPFACEVKSFRFTPRVQRLNELEAMTRVRLDFLDQLAKFWELQGSTLKIPVVERKILDLYALSKIVASKGGFEMVTKEKKWSKVGSRLGYLPGKGTGSLLKSHYERILYPYELFQSGVSLMGVQMPNLDLKEKVEPEVLSTDTQTSPEPGTRMNILPKRTRRVKTQSESGDVSRNTELKKLQIFGAGPKVVGLAMGTKDKEDEVTRRRKVTNRSDAFNMQMRQRKGTLSVNFVDLYVCMFCGRGNNEDKLLLCDGCDDSYHTFCLIPPLPDVPKGDWRCPKCVAEECSKPREAFGFEQAVREYTLQSFGEMADNFKSDYFNMPVHMVPTELVEKEFWRLVSSIEEDVIVEYGADISSKDFGSGFPVKDGRRKILPEEEEYALSGWNLNNMPVLEQSVLAHINVDISGMKVPWLYVGMCFSSFCWHIEDHWSYSINYLHWGEPKTWYGVPSHAAEQLEEVMRELAPELFESQPDLLHQLVTIMNPNVLMEHGVPVYRTNQCAGEFVVTFPRAYHSGFNQGYNFAEAVNFCTADWLPIGRQCVNHYRRLRRHCVFSHEELIFKMAADPECLDVGLAAMVCKELTLMTEEETRLRESVVQMGVLMSEEEVFELVPDDERQCSACRTTCFLSALTCSCNPERLVCLYHPTDLCPCPMQKKCLRYRYPLEDLPSLLYGVKVRAQSYDTWVSRVTEALSANFNHKKDLIELRVMLEDAEDRKYPENDLFRKLRDAVKEAETCASVAQLLLSKKQKHRQSPDSGRTRTKLTVEELKAFVQQLFSLPCVISQARQVKNLLDDVEEFHERAQEAMMDETPDSSKLQMLIDMGSSLYVELPELPRLKQELQQARWLDEVRLTLSDPQQVTLDVMKKLIDSGVGLAPHHAVEKAMAELQELLTVSERWEEKAKVCLQARPRHSVASLESIVNEAKNIPAFLPNVLSLKEALQKAREWTAKVEAIQSGSNYAYLEQLESLSAKGRPIPVRLEALPQVESQVAAARAWRERTGRTFLKKNSSHTLLQVLSPRTDIGVYGSGKNRRKKVKELIEKEKEKDLDLEPLSDLEEGLEETRDTAMVVAVFKEREQKEIEAMHSLRAANLAKMTMVDRIEEVKFCICRKTASGFMLQCELCKDWFHNSCVPLPKSSSQKKGSSWQAKEVKFLCPLCMRSRRPRLETILSLLVSLQKLPVRLPEGEALQCLTERAMSWQDRARQALATDELSSALAKLSVLSQRMVEQAAREKTEKIISAELQKAAANPDLQGHLPSFQQSAFNRVVSSVSSSPRQTMDYDDEETDSDEDIRETYGYDMKDTASVKSSSSLEPNLFCDEEIPIKSEEVVTHMWTAPSFCAEHAYSSASKSCSQGSSTPRKQPRKSPLVPRSLEPPVLELSPGAKAQLEELMMVGDLLEVSLDETQHIWRILQATHPPSEDRFLHIMEDDSMEEKPLKVKGKDSSEKKRKRKLEKVEQLFGEGKQKSKELKKMDKPRKKKLKLGADKSKELNKLAKKLAKEEERKKKKEKAAAAKVELVKESTEKKREKKVLDIPSKYDWSGAEESDDENAVCAAQNCQRPCKDKVDWVQCDGGCDEWFHQVCVGVSPEMAENEDYICINCAKKQGPVSPGPAPPPSFIMSYKLPMEDLKETS
[3]
  demethylation of peptide substrate, mass spectrometry: failed to catalyze removal of the mel modification state
[4]
  demethylation of peptide substrate, mass spectrometry: 80-90% demethylation of the modified substrate
[5]
  demethylation of peptide substrate, mass spectrometry: 80-90% demethylation of the modified substrate

B3: recombinant Flag-JHDM1A (FBXL11) (protein)
chain: MEPEEERIRYSQRLRGTMRRRYEDDGISDDEIEGKRTFDLEEKLHTNKYNANFVTFMEGKDFNVEYIQRGGLRDPLIFKNSDGLGIKMPDPDFTVNDVKMCVGSRRMVDVMDVNTQKGIEMTMAQWTRYYETPEEEREKLYNVISLEFSHTRLENMVQRPSTVDFIDWVDNMWPRHLKESQTESTNAILEMQYPKVQKYCLMSVRGCYTDFHVDFGGTSVWYHIHQGGKVFWLIPPTAHNLELYENWLLSGKQGDIFLGDRVSDCQRIELKQGYTFVIPSGWIHAVYTPTDTLVFGGNFLHSFNIPMQLKIYNIEDRTRVPNKFRYPFYYEMCWYVLERYVYCITNRSHLTKEFQKESLSMDLELNGLESGNGDEEAVDREPRRLSSRRSVLTSPVANGVNLDYDGLGKTCRSLPSLKKTLAGDSSSDCSRGSHNGQVWDPQCAPRKDRQVHLTHFELEGLRCLVDKLESLPLHKKCVPTGIEDEDALIADVKILLEELANSDPKLALTGVPIVQWPKRDKLKFPTRPKVRVPTIPITKPHTMKPAPRLTPVRPAAASPIVSGARRRRVRCRKCKACVQGECGVCHYCRDMKKFGGPGRMKQSCVLRQCLAPRLPHSVTCSLCGEVDQNEETQDFEKKLMECCICNEIVHPGCLQMDGEGLLNEELPNCWECPKCYQEDSSEKAQKRKMEESDEEAVQAKVLRPLRSCDEPLTPPPHSPTSMLQLIHDPVSPRGMVTRSSPGAGPSDHHSASRDERFKRRQLLRLQATERTMVREKENNPSGKKELSEVEKAKIRGSYLTVTLQRPTKELHGTSIVPKLQAITASSANLRHSPRVLVQHCPARTPQRGDEEGLGGEEEEEEEEEEEDDSAEEGGAARLNGRGSWAQDGDESWMQREVWMSVFRYLSRRELCECMRVCKTWYKWCCDKRLWTKIDLSRCKAIVPQALSGIIKRQPVSLDLSWTNISKKQLTWLVNRLPGLKDLLLAGCSWSAVSALSTSSCPLLRTLDLRWAVGIKDPQIRDLLTPPADKPGQDNRSKLRNMTDFRLAGLDITDATLRLIIRHMPLLSRLDLSHCSHLTDQSSNLLTAVGSSTRYSLTELNMAGCNKLTDQTLIYLRRIANVTLIDLRGCKQITRKACEHFISDLSINSLYCLSDEKLIQKIS
[6]
  demethylation of peptide substrate, mass spectrometry: revealed the generation of mono- and unmethylated forms of the peptide in a JHDM1A-dependent manner
[7]
  demethylation of peptide substrate, mass spectrometry: we did not detect any demethylation when a trimethyl-K36 peptide was subjected to a parallel reaction (data not shown)

B4: recombinant Flag-JHDM2A (JmjC domain-containing histone demethylase 2A) (protein)
chain: MVLTLGESWPVLVGRRFLSLSAADGSDGSHDSWDVERVAEWPWLSGTIRAVSHTDVTKKDLKVCVEFDGESWRKRRWIEVYSLLRRAFLVEHNLVLAERKSPEISERIVQWPAITYKPLLDKAGLGSITSVRFLGDQQRVFLSKDLLKPIQDVNSLRLSLTDNQIVSKEFQALIVKHLDESHLLKGDKNLVGSEVKIYSLDPSTQWFSATVINGNPASKTLQVNCEEIPALKIVDPSLIHVEVVHDNLVTCGNSARIGAVKRKSSENNGTLVSKQAKSCSEASPSMCPVQSVPTTVFKEILLGCTAATPPSKDPRQQSTPQAANSPPNLGAKIPQGCHKQSLPEEISSCLNTKSEALRTKPDVCKAGLLSKSSQIGTGDLKILTEPKGSCTQPKTNTDQENRLESVPQALTGLPKECLPTKASSKAELEIANPPELQKHLEHAPSPSDVSNAPEVKAGVNSDSPNNCSGKKVEPSALACRSQNLKESSVKVDNESCCSRSNNKIQNAPSRKSVLTDPAKLKKLQQSGEAFVQDDSCVNIVAQLPKCRECRLDSLRKDKEQQKDSPVFCRFFHFRRLQFNKHGVLRVEGFLTPNKYDNEAIGLWLPLTKNVVGIDLDTAKYILANIGDHFCQMVISEKEAMSTIEPHRQVAWKRAVKGVREMCDVCDTTIFNLHWVCPRCGFGVCVDCYRMKRKNCQQGAAYKTFSWLKCVKSQIHEPENLMPTQIIPGKALYDVGDIVHSVRAKWGIKANCPCSNRQFKLFSKPASKEDLKQTSLAGEKPTLGAVLQQNPSVLEPAAVGGEAASKPAGSMKPACPASTSPLNWLADLTSGNVNKENKEKQPTMPILKNEIKCLPPLPPLSKSSTVLHTFNSTILTPVSNNNSGFLRNLLNSSTGKTENGLKNTPKILDDIFASLVQNKTTSDLSKRPQGLTIKPSILGFDTPHYWLCDNRLLCLQDPNNKSNWNVFRECWKQGQPVMVSGVHHKLNSELWKPESFRKEFGEQEVDLVNCRTNEIITGATVGDFWDGFEDVPNRLKNEKEPMVLKLKDWPPGEDFRDMMPSRFDDLMANIPLPEYTRRDGKLNLASRLPNYFVRPDLGPKMYNAYGLITPEDRKYGTTNLHLDVSDAANVMVYVGIPKGQCEQEEEVLKTIQDGDSDELTIKRFIEGKEKPGALWHIYAAKDTEKIREFLKKVSEEQGQENPADHDPIHDQSWYLDRSLRKRLHQEYGVQGWAIVQFLGDVVFIPAGAPHQVHNLYSCIKVAEDFVSPEHVKHCFWLTQEFRYLSQTHTNHEDKLQVKNVIYHAVKDAVAMLKASESSFGKP
[8]
  demethylation of peptide substrate, mass spectrometry: demethylation of a dimethyl-K9 peptide depends on the presence of JHDM2A and generated products with masses that correlate with both mono-methyl and unmethylated forms of the peptide
[9]
  demethylation of peptide substrate, mass spectrometry: no demethylation was detected when a trimethyl-K9 peptide, that has the same sequence, was subjected to parallel analysis
